Measurements reported in the DeepSol protein solubility set.

Experiment: soluble on expression in E. coli; label from the status in PepcDB or PDB records

Sequence | soluble on expression in E. coli
MAHHHHHHMEGSSGHLKSTAVAHNDGQALPPAAGAGHAPPTSNAAAGQQKTDQPPIAAVPVMSVAERAAATAEAERALSLLCTIRAVRRQTEELTVLLLHACGEWGCWSVPTAEEGVACETTRTPLPSSPLPGRIRHSQHLFADLFVAAPLAPTAFCTSSSVSLVGVSDGTAKADLLDLSAGEDADPARLSAASVFAKESACRRERACQALRQALQQQQQRWSLSTAAAATATLAAGAAFLEMALAPPQRAVPPPPPMSVQLDLYAVQPCALQRSIQEWRPRAAQTTAAGATKAGGTSPPEEAASLHCSLQQLLHTLGRQGPQLQSSYDVLHAAAGQRHRTNTRSCTDEQRGVPPREATTGVIKAAEARAVVHKTHGTSAAASDAPQEVEVPPLPSSSSPLAVAPDTLRRTPSSLPRQHSSTTPSSSSQALPSSDTLLSSPVQLAVDHTRLWADPPTPLQRADFSCAAAAAPTSTEISERGARIPVHQAGRSVLEDASSHRTKGKPELEAHVEVEVIGGNADGSHAAAGASSSNSTQVTNMRRTSLSSSTFFHSPVAVDARGGVVGALREVYEASWQPCSNARPSTRPEAAHAVAVAEEKLASQHQEERRSRRCDRGGSATAVELEDSVRRHLTRWMSQQPNDRAWVSGGPGLGPASFLLDPIRHAPGSSRAATRATDATAPALGQGAGRDRRGSRRAVHSGVRVDPIREHAREEGAGAGTESPLDAWPRPGARTAGPRGPGCSRSAAEMSELQLCMCVLLA | soluble
MTRRPDRKDVATVDELHASATKLVGLDDFGTDDDNYREALGVLLDAYQGEAGLTVLGSKMNRFFLRGALVARLLSQSAWKQYPEHVDVAIKRPIFVTGLVRTGTTALHRLLGADPAHQGLHMWLAEYPQPRPPRETWESNPLYRQLDADFTQHHAENPGYTGLHFMAAYELEECWQLLRQSLHSVSYEALAHVPSYADWLSRQDWTPSYCRHRRNLQLIGLNDAEKRWVLKNPSHLFALDALMATYPDALVVQTHRPVETIMASMCSLAQHTTEGWSTKFVGAQIGADAMDTWSRGLERFNAARAKYDSAQFYDVDYHDLIADPLGTVADIYRHFGLTLSDEARQAMTTVHAESQSGARAPKHSYSLADYGLTVEMVKERFAGL | soluble
MMRRTLENRNAQTKQLQTAVSNVEKHFGELCQIFAAYVRKTARLRDKADLLVNEINAYAATETPHLKLGLMNFADEFAKLQDYRQAEVERLEAKVVEPLKTYGTIVKMKRDDLKATLTARNREAKQLTQLERTRQRNPSDRHVISQAETELQRAAMDASRTSRHLEETINNFERQKMKDIKTIFSEFITIEMLFHGKALEVYTAAYQNIQNIDEDEDLEVFRNSLYAPDYSSRLDIVRANSKSPLQRSLSAKCVSGTGQEAGWAATCQTLI | soluble
MSLNIFDIAKQNQEKAWQVIKNTNIIQIWEDAGAKINLVGSLRTGLLMKHRDIDFHIYSSPLNLTDSFQAMARLAENPSIKRIECANLLHTAEACIEWHAWYQNEENELWQMDMIHIREGSRYDGYFEKVAQRISEIMTDEIRETILRLKYETPETEKIIGVEYYQAVIRDGVRDYSGFKEWRKQHPVTGVVEWMPEGHHHHHH | soluble
IGNTLHNYSVLADSKSVLLGVMSKNIQVGSFAYRYLCRTSSRMNLNHLQTVDGPIGRCYTLISQDGERTFAINEGHMNQLLPESIPEEVFEKASALVVSSYLMRGKEEDPMPKAVQRAIDFAKKHDVPVVLTLGTKYVIEGNAEWWQEYIRENVSVVAMNEEEGAALTGEHDPLAAADKALEWVDLVLCTAGPNGLYMAGYTDEKVKRETTHDILESSIEEFNKFEFSRAMRKEDCVNPMKVYSHIGPYLGGPLEIKNTNGAGDAALSALLHDMAANSFHQKEVPTSEKHEVRCLTYSSLSQICKYANRVSYEVLTQHSPRLSRALPEREDSLEETYWDR | not soluble
MVYLYKKGVGMNEQSQAKSPEALRAMVAGTLANFQHPTLKHNLTTLKALHHVAWMDDTLHVELVMPFVWHSAFEELKEQCSAELLRITGAKAIDWKLSHNIATLKRVKNQPGINGVKNIIAVSSGKGGVGKSSTAVNLALALAAEGAKVGILDADIYGPSIPTMLGAENQRPTSPDGTHMAPIMSHGLATNSIGYLVTDDNAMVWRGPMASKALMQMLQETLWPDLDYLVLDMPPGTGDIQLTLAQNIPVTGAVVVTTPQDIALIDAKKGIVMFEKVEVPVLGIVENMSVHICSNCGHHEPIFGTGGAEKLAEKYHTQLLGQMPLHISLREDLDKGTPTVISRPESEFTAIYRQLADRVAAQLYWQGEVIPGEISFRAVLEHHHHHH | not soluble
AIATSCHIAEEHIQKVAIFGGTHGNELTGVFLVKHWLENGAEIQRTGLEVKPFITNPRAVKKCTRYIDCDLNRIFDLENLGKKMSEDLPYEVRRAQEINHLFGPKDSEDSYDIIFDLHNTTSNMGCTLILEDSRNNFLIQMFHYIKTSLAPLPCYVYLIEHPSLKYATTRSIAKYPVGIEVGPQPQGVLRADILDQMRKMIKHALDFIHHFNEGKEFPPCAIEVYKIIEKVDYPRDENGEIAAIIHPNLQDQDWKPLHPGDPMFLTLDGKTIPLGGDCTVYPVFVNEAAYYEKKEAFAKTTKLTLNAKSIRCCLH | soluble
MAHHHHHHMEVKEVQPQKRLQPACDAKGENGFPLTIPCERQKVANLAPHRPLRRFLEAMRADNQNLCALKGSAVHHLKKDLRGDEKQVVLSCETPSRSNRLREKYECMKKMRFNETQEALARECDLSRIIIELQKRIEDAEASREFEREVHARESFYLLKENECLKEQVRTTEKMLLDVRNNYNLEISKLNTRVSDLEDSLVAEGQRAKTREAEQERAIQNLCSNLYTTQGELERYVEKNRELASVNSLLEEMRAESWRDKRECTVWYEVLRRREVFMLLEREAFTELQCLCMQEMNRFWQIKDDSYQAMFCSEAERFLGHIIREAEICYEMKQLMFDNATASIEKETWISLHFSKVQELSRLSEKHEALSILLAQYMREVEEIQQGNLEQVLRRKTVDDASIAYMLHQRDNEVSDKLRTWKGALQEAHKLLTALLKRYEPFQRGDEVFVGRVMEWLISAPHVKEVINVFLP | not soluble
MSAKIKAWSSNAEKLNSKRKKMEIREELFPSTTCSSSPQANQEISSEDRNSHHPDIASSSSATTCRSSNCFNMDEGILTRDVEMDFSDEIPTFSHNRFSNPVFPPTPSRNSFSTPRVRIISNVEQIPQIKMLRLTIERLKNEKMKYQKKYKSGMAVDFLSKCGLSLSQMEKIKNYLTNSIGYDLLPLVKNTRDLSIQLSMISSFKVSTSFDNKGKVITIVQCMKIAEVLAYRIELLCNSNQFVDDGYTKGVIKIGVVGDAGGGSTKHVMVIAVYDGSDNYSCLKKFIPDVLEQLGKLTKIRYLDKGVQKTAKIVQIATGDCKFQFDILGHQGHSSHNFCFKCFAQNPRGAEERMKIKDMNVDETFHPRTIDLYKACCTPLLPHVAIMFYLIPLLHIIMGIFDKYIFNPLWKYSVTLDNTTCFPILKTRKATLKNAVNLIKSAEEKYQAATGKMKLESHAELKALQSEKLLLDTIVNGTPGGTLEKMEQCWAKFGADKQAWFQSFCGNHLKLLLTPAIVEETFNIFGPNLCPMLLGLKSAMGKLSTIMSLSGNKFLNDSDVLILQNSIRGFVEDLKVAVPEETIILKLHLVVYHAPQMAKDVRNIGRITEPGVESVHAIFNALERRFCNYRDKKRRYIHVLRELMCRNIMNDMTMNTSIPGLSIVPKDATVLPISSQNDLRDPKVVIRDVTAAQKRKNLAKKKINFSSKKRLPQSTKSRNAVPDFSQNVQTSIAFGGNSTKIGFRGLPSNALSRPNPMAITQTCSTSQPITRSHPLVAPPVSYQLPKCSNSLAEKIRASCGQARRSAAESSSTESHVDTNSKKKVYRLKFVQKSREIPKK | not soluble
TLTSTLASMMDALETALQPLKKYGFPVESVVLAFSLTLRLLPLMLNTVNEVLDARKARGVAFSLTALGTPVMIRSINRARSIADALMARGAGD | not soluble
MKPGIVKFALNVWPPFWGAGIKILHISEDFRTVKVRLKLRWWNKNANRTQYGGSIFSLTDPIYSLMLMGILREEYYVWDKEASINFIKPGQSDLFAEFEITDGMLDEIYQMTRNGEKCFPEFITHVKDKQGNVVSEVQRKLYVRKLEHHHHHH | soluble
MPSRKFADGEVVRGRWPGSSLYYEVEILSHDSTSQLYTVKYKDGTELELKENDIK | soluble
MGSDKIHHHHHHMKKRLLLNTDDYGWDLDANAAIIDLLQSDSIHNVTLLANYCDSDVLRAISPFQDRASLGIHVCLNSGQALSGSTRSTLHDACGNFYDSKTLFQRAFFGELNYSDVLLEIKSQYYYLSDHGIDITHADSHQHIHQYPFLSGMITQALHEIGVKNIRRCRPLEVKNIRRYLIYFFYQCTKNNLNKFNSPDVLVTDFTHSGFSFSTDVQPILKKLSLSHYSTIEWMCHPAREDKAGSYLQRKKEYDFLKKCDWDILLNGTGIERSQYRYI | not soluble
